{"source": "paper PMC13254535", "about": "“The RecBCD complex interacts directly with the DNA sliding clamp in Escherichia coli” (Nucleic Acids Research, 2026)", "molecules": {"B1": {"name": "RecB: wild type RecB subunit of the E. coli RecBCD complex (T18 fusion, his-tagged or HaloTag according to test) (protein)", "chain": "MSDVAETLDPLRLPLQGERLIEASAGTGKTFTIAALYLRLLLGLGGSAAFPRPLTVEELLVVTFTEAATAELRGRIRSNIHELRIACLRETTDNPLYERLLEEIDDKAQAAQWLLLAERQMDEAAVFTIHGFCQRMLNLNAFESGMLFEQQLIEDESLLRYQACADFWRRHCYPLPREIAQVVFETWKGPQALLRDINRYLQGEAPVIKAPPPDDETLASRHAQIVARIDTVKQQWRDAVGELDALIESSGIDRRKFNRSNQAKWIDKISAWAEEETNSYQLPESLEKFSQRFLEDRTKAGGETPRHPLFEAIDQLLAEPLSIRDLVITRALAEIRETVAREKRRRGELGFDDMLSRLDSALRSESGEVLAAAIRTRFPVAMIDEFQDTDPQQYRIFRRIWHHQPETALLLIGDPKQAIYAFRGADIFTYMKARSEVHAHYTLDTNWRSAPGMVNSVNKLFSQTDDAFMFREIPFIPVKSAGKNQALRFVFKGETQPAMKMWLMEGESCGVGDYQSTMAQVCAAQIRDWLQAGQRGEALLMNGDDARPVRASDISVLVRSRQEAAQVRDALTLLEIPSVYLSNRDSVFETLEAQEMLWLLQAVMTPERENTLRSALATSMMGLNALDIETLNNDEHAWDVVVEEFDGYRQIWRKRGVMPMLRALMSARNIAENLLATAGGERRLTDILHISELLQEAGTQLESEHALVRWLSQHILEPDSNASSQQMRLESDKHLVQIVTIHKSKGLEYPLVWLPFITNFRVQEQAFYHDRHSFEAVLDLNAAPESVDLAEAERLAEDLRLLYVALTRSVWHCSLGVAPLVRRRGDKKGDTDVHQSALGRLLQKGEPQDAAGLRTCIEALCDDDIAWQTAQTGDNQPWQVNDVSTAELNAKTLQRLPGDNWRVTSYSGLQQRGHGIAQDLMPRLDVDAAGVASVVEEPTLTPHQFPRGASPGTFLHSLFEDLDFTQPVDPNWVREKLELGGFESQWEPVLTEWITAVLQAPLNETGVSLSQLSARNKQVEMEFYLPISEPLIASQLDTLIRQFDPLSAGCPPLEFMQVRGMLKGFIDLVFRHEGRYYLLDYKSNWLGEDSSAYTQQAMAAAMQAHRYDLQYQLYTLALHRYLRHRIADYDYEHHFGGVIYLFLRGVDKEHPQQGIYTTRPNAGLIALMDEMFAGMTLEEA", "modifications": "left off: T18 (Bordetella pertussis CyaA fragment), N-terminal, kept"}}, "key": {"[1]": {"tested_on": "ΔrecA ΔrecB cells", "test": "DNA degradation assay after UV (\"reckless\" DNA degradation)", "format": "cell-based, Escherichia coli", "conditions": "expressed from pUT18C in ΔrecA ΔrecB; UV 50 J/m^2, 3 h; Hoechst 33258 microscopy", "procedure": "(§1) IMR13 (ΔrecA) served as a positive control for RecB-mediated DNA degradation, while IMR19 (ΔrecA ΔrecB) was used as a negative control.\n(§2) Overnight cultures were diluted to an OD600 of 0.01 into LB medium supplemented with appropriate antibiotics and incubated with shaking at 37°C until they reached an OD600 of 0.2. Each culture was split into two 1 ml aliquots. One aliquot was fixed immediately in ethanol (50% final concentration) to assess DNA content prior to UV exposure. The second aliquot was pelleted, resuspended in 1× PBS, and exposed to UV light at a dose of 50 J/m^2 (CL-1000 Ultraviolet crosslinker, UVP). […]\n(§3) Imaging was performed on a Leica DM6000 B fluorescence microscope equipped with a 100× oil immersion objective (Leica HCX Plan Apochromat 100×, 1.40 NA, PH3 CS), a Leica EL6000 metal-halide illumination system, and a Hamamatsu C9100-14 EM-CCD camera. For each sample, six fields of view were acquired, each including both phase-contrast and fluorescence channels. Fluorescence imaging was conducted using a narrow band-pass filter set optimized for CFP (Excitation: 426–446 nm; Emission: 460–500 nm; exposure time: 30 ms). All imaging parameters—including exposure time, illumination intensity, and gain—were kept constant across all strains, treatments, and replicates to ensure quantitative comparability and minimize experimental bias. […]"}, "[2]": {"tested_on": "E. coli BTH101 ∆recB strain (IMR04)", "test": "UV survival assay (complementation of BTH101 ΔrecB)", "format": "cell-based, Escherichia coli", "conditions": "expressed from pUT18C in BTH101 ΔrecB; UV 5, 15 or 30 J/m^2; CFU; 2 to 3 biological replicates", "procedure": "Non-transformed BTH101 and BTH101 ∆recB served as positive and negative controls, respectively. All strains were cultured at 30°C to early exponential phase (OD600 around 0.2, measured by Nanodrop One) before treatment.\nFor UV exposure, bacterial cultures were serially diluted 10-fold in LB. From each dilution, 5 µl was spotted onto four separate LB agar plates supplemented with IPTG (0.5 mM) and the appropriate antibiotics. Once droplets had dried, one plate was kept unexposed as a control, while the remaining three plates were subjected to UV irradiation at doses of 5, 15, or 30 J/m^2 using an CL-1000 ultraviolet crosslinker (UVP). Plates were incubated overnight at 30°C, after which colony-forming units (CFUs) were counted. Survival at each UV dose was calculated as the ratio of CFUs on the UV-exposed plates to CFUs on the unexposed control plate."}, "[3]": {"target": "T1, β-clamp (Escherichia coli, UniProt P0A988)", "T1 sequence (P0A988 whole entry)": "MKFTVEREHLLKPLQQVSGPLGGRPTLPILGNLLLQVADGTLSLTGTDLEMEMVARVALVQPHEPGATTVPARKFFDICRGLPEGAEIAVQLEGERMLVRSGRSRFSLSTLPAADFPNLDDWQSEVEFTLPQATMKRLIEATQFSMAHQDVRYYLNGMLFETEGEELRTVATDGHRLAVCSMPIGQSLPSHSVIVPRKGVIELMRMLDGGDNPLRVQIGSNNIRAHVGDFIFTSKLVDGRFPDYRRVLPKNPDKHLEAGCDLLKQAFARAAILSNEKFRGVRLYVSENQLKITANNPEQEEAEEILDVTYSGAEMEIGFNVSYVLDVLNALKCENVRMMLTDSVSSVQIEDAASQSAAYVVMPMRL", "conditions": "3-AT 0.5 mM; ~29 million interaction tests", "excerpt": "Yeast-two hybrid screening was outsourced to Hybrigenics (Paris, France). This service employs a high-complexity E. coli prey library (∼3 × 10^7 clones) and follows a robust mating-based screening protocol to identify binary protein interactions. Full-length E. coli dnaN (encoding β-clamp) was cloned into the Gal4 DNA-binding domain expression vector pGBKT7, which carries LEU2 and TRP1 selection markers (bait plasmid). The dnaN bait was screened against an E. coli complementary DNA/genomic prey library provided by Hybrigenics, totaling ~29 million interaction tests. Transformants were selected on medium lacking leucine, tryptophan, and histidine, supplemented with 0.5 mM of 3-amino-1,2,4-triazole (3-AT) to suppress background growth. Positive interactions were confirmed and sequenced by Hybrigenics."}, "[4]": {"tested_on": "BTH101 ΔrecB cells", "test": "Western blot of RecB expression level", "set-up": "species or system Escherichia coli", "conditions": "pUT18C constructs in BTH101 ΔrecB; Ponceau S normalized; relative to BTH101 wild type", "description": "Samples, including purified RecB, β-clamp (purified as previously explained for co-immunoprecipitation), input (10 µg; 0.5%), and pull-down eluates, and samples from BTH101 cultures used in survival assays, were mixed with 1 mM dithiothreitol (DTT) and 1× NuPAGE LDS sample buffer, then heated to 75°C for 10 min. […] SeeBlue Plus2 Pre-stained Protein Standard (Invitrogen) was used as a molecular weight marker.\nProteins were transferred onto 0.2-µm nitrocellulose membranes using the Trans-Blot Turbo Transfer System (Bio-Rad), and membranes were blocked in 5% (w/v) skim milk (Merck) in PBS-T (PBS with 0.1% Tween-20) for 45–60 min at room temperature. […] Following protein transfer, these membranes were also incubated in 0.1% (w/v) Ponceau S solution for 5 min to verify transfer efficiency and account for total protein loading. The stain was visualized, imaged for densitometric normalization, and subsequently removed by washing with deionized water prior to blocking. […]\nRelative RecB levels were quantified from the western blot images using Fiji (ImageJ) [58]. […] The lane profiles were plotted, and the measured signal from each lane was first normalized to the relevant Ponceau stain signal from the same lane and then to the wild-type strain."}, "[5]": {"tested_on": "EH219 cells (GFP-β-clamp, RecB-HaloTag)", "conditions": "unchallenged; foci within 1 pixel (0.108 µm); three biological replicates", "description": "Fixed cells with endogenously tagged recB and dnaN (strain EH219) were imaged. β-clamp was N-terminally tagged with green fluorescence protein (GFP) [48]\nStrains were first grown overnight on LB-agar plates with kanamycin for selection. Then, 2 ml LB with kanamycin was inoculated with five plate colonies to create overnight cultures. The next day, overnight cultures were diluted 1:200 in fresh LB medium with kanamycin and cultured at 37°C until exponential growth (OD600 of 0.10). JF549-HTL (5 µM final concentration) was then added to the culture, and incubation continued for another 60 min for staining the RecB HaloTag, before washing five times with LB. […] Samples were fixed by resuspending and incubating them in PBS with 4% (v/w) formaldehyde for 60 min, followed by washing twice with PBS and resuspension in PBS for imaging.\nBriefly, we used a Nikon Eclipse Ti2-E inverted microscope equipped with a 60× oil objective, a CrestOptics X-Light V3 spinning disk confocal module (50:400 µm spinning disk), a Lumencor Celeste multi-line laser and two Teledyne Photometrics Kinetix sCMOS cameras. […] Three channels were used for fluorescence imaging: a transmitted light channel for cell outlines (1 ms exposure), in addition to GFP and JF549 fluorescence channels imaged with a 50:400 µm spinning disk. […] The foci numbers per cell were quantified along with their colocalization. […]"}, "[6]": {"target": "T1, β-clamp", "conditions": "N-terminally his-tagged RecB as bait, pBAD30, E. coli MG1655; anti-β-clamp western blot", "description": "His-tagged recB was cloned into the pBAD30 plasmid (kind gift from Prof. Michael T. Laub, MIT and Howard Hughes Medical Institute, USA) by Dongxuan Gene Technology Co. and transformed into E. coli MG1655. An overnight culture was diluted 1:100 into 1 l of LB broth supplemented with ampicillin (100 µg/ml). When the culture reached an OD600 of 0.5, expression was induced with 0.4% (w/v) L-arabinose. After 2 h of induction at 37°C, cells were harvested by centrifugation (4000 x g, 10 min), washed with Phosphate buffered saline (PBS), and crosslinked with 1% formaldehyde for 20 min at room temperature. Crosslinking was quenched by the addition of glycine to a final concentration of 2.5 M. The cell pellets were washed three times with PBS, flash-frozen in liquid nitrogen, and stored at −80°C.\nFor lysis, cell pellets were resuspended in 10 ml of lysis buffer (50 mM Tris–HCl, pH 8.0; 500 mM NaCl; 10 mM β-mercaptoethanol; 1 mg/ml lysozyme) and subjected to sonication in 3 × 15-s pulses (Vibra cell, Sonics & Materials, Inc., Newtown, CT, USA). […]\nAfter incubation for 30 min at 4°C with gentle rotation, beads were washed four times with wash buffer (50 mM sodium phosphate, pH 8.0; 300 mM NaCl; 0.01% (v/w) Tween-20). […] Beads were removed magnetically, and eluates were analyzed by SDS–polyacrylamide gel electrophoresis (PAGE). […]"}, "[7]": {"tested_on": "ΔrecA ΔrecB cells", "test": "Basal DNA content without UV", "format": "cell-based, Escherichia coli", "conditions": "expressed from pUT18C in ΔrecA ΔrecB; unchallenged; relative to ΔrecA ΔrecB cells", "procedure": "as §1, §2, §3"}}, "data": [{"molecule": "B1", "values": [{"measurement": "reckless DNA degradation after UV", "setting": "[1]", "result": "restored the reckless degradation phenotype, comparable to that of the ΔrecA strain"}, {"measurement": "survival after UV", "setting": "[2]", "result": "fully restores ΔrecB strain survival to the wild-type strain (BTH101) level"}, {"measurement": "yeast two-hybrid interaction with β-clamp", "setting": "[3]", "result": "possible interaction"}, {"measurement": "RecB expression level relative to endogenous RecB", "setting": "[4]", "result": "more than eight times higher"}, {"measurement": "cells showing RecB–β-clamp colocalization", "setting": "[5]", "result": "around 32%"}, {"measurement": "pull-down of β-clamp", "setting": "[6]", "result": "β-clamp was pulled down and exhibited a strong band on the membrane"}, {"measurement": "basal degradation", "setting": "[7]", "result": "~50", "unit": "%"}]}]}
